In paper PMC9856709 (Cancers, 2023):
Entries after “also recorded” stand apart in the source; their conditions may differ. Where two headings read alike, the source gives them in different places. Numbered stars: 1 amine (or outer) side, 2 acyl side, 3 side chain; on linkers, the order of the positions; unused ones are H or OH. Square brackets hold non-standard residues; d marks the D form. Peptide text beside a SMILES is read from it. * marks the point of attachment. NOTA = O=C(O)CN1CCN(CC(=O)O)CCN(CC(=O)*)CC1; γGlu = O=C(O)[C@H](CCC(=O)[*:2])N[*:1]; Sta = CC(C)C[C@H](N)[C@@H](O)CC(=O)O; AEEA = NCCOCCOCC(=O)O; Aoc = NCCCCCCCC(=O)O; CO = O=C([*:1])[*:2]

Columns and labels:
PC3-pip cell line = assay: Cellular processing in PC3-pip cells; assay type: cell-based, human; settings: 1 nM, 37 °C
Procedure: In vitro experiments were carried out using the PSMA- and GRPR-expressing human prostate carcinoma PC3-pip cell line (obtained from Prof. Martin Pomper, The Johns Hopkins University, Baltimore, MD, USA). Cells (5–7 × 10^5 cells/vial) were seeded 24–48 h before the experiments. All experiments were performed in triplicate.
At selected time points (1 and 3 h), cells were collected, and the total cell-associated activity was measured using an automated gamma counter. At 3 h, the membrane-bound and internalised fractions were collected separately using the acid and base method described earlier.

[1] = 37 °C, 1 h, ITLC
Procedure: After 1 h, samples were taken from all solutions and analysed by ITLC.

Wistar rats = assay: Acute and subacute toxicity in rats; assay type: in vivo
Procedure: The animals were kept in a barrier-type animal facility under standard housing conditions. […] The dose of heterodimer for toxicological studies was calculated based on cross-species dose conversion using body surface area scaling: the maximum dose for the clinical study was chosen to be 300 µg of heterodimer per 75 kg patient, or […], which corresponds to [(4 µg × 427 g)/1000 g] × 6 = 10.3 µg per rat. Ten rats from each group were euthanized at 24 h pi and five rats at 28 days pi. The body weight of the rats was controlled at baseline, at 24 h after administration for the acute toxicity group, and every second day for the subacute toxicity group. Biochemical blood tests on alanine aminotransferase, albumin, aspartate aminotransferase, bilirubin, glucose, creatinine, urea, the total amount of proteins, cholesterol, and ALT were performed before the euthanasia. Necropsy of the experimental rats was performed, and the weights of the brain, heart, lungs, liver, adrenal glands, kidneys, spleen, testes, and thymus were measured.

[2] = Excerpt: The average animal weight was 27.4 ± 1.6 g and OLINDA/EXM 1.0 software (adult male phantom) was used to estimate the absorbed doses.
The well-established “percent kg/g method” using Equation (1) was used to upscale the uptake values in mice to be able to evaluate the dosimetry in humans. The organ weights of the reference adult male were used to calculate the organ uptake in humans and the area under the curve of exponential fits for human time–activity curves was used to calculate the residence times. (%IA/organ)human = [(%IA/g)animal × (kBqTBweight)animal × (gorgan/(kBqTBweight)human](1)

PC3-pip xenografts = assay: nanoScan PET/CT imaging of PC3-pip xenografted mice; assay type: in vivo, BALB/c nu/nu mice; settings: 100 pmol, 8 MBq, n = 2
Procedure: Immediately after the PET scan, a CT scan was performed using a nanoScan SPECT/CT camera (Mediso Medical Imaging System Ltd., Budapest, Hungary) with the same bed. […] Imaging of the non-blocked (n = 2) and the PSMA/GRPR-blocked (n = 2) groups was performed at 1 and 3 h pi. Reconstruction of the PET/CT scans was conducted using Nucline nanoScan 3.04.014.0000 software.

PSMA and GRPR = assay: In vivo binding specificity (blocked groups) in PC3-pip xenografted mice; parameters: species or system BALB/c nu/nu mice; settings: 1 h pi
Procedure: (§1) Ex vivo experiments and in vivo imaging were carried out using BALB/c nu/nu mice bearing PC3-pip xenografts. All studies were performed according to the guidelines of the Declaration of Helsinki and approved by the Ethics Committee for Animal Research in Uppsala, Sweden (5.8.18-00473/2021. Approved on 26 February 2021).
(§2) There were 4 mice in each group. At 1 and 3 h pi, mice were sacrificed after an intraperitoneal injection of a Ketalar–Rompun solution (20 μL/g body weight) consisting of Ketalar (10 mg/mL) and Rompun (1 mg/mL), followed by heart puncture.

[3] = as above; parameters: species or system BALB/c nu/nu mice; settings: BALB/c nu/nu, mouse, iv, total radioactivity, 1 h pi, 40 pmol iv, average ± SD
Procedure: as §1, §2

[4] = 3 h, acid and base method, triplicate
[5] = estimated for adult male from mouse ex vivo data, percent kg/g method, OLINDA/EXM 1.0

CC(C)C[C@H](NC(=O)C[C@H](O)[C@H](CC(C)C)NC(=O)[C@H](Cc1c[nH]cn1)NC(=O)CNC(=O)[C@@H](NC(=O)[C@H](C)NC(=O)[C@H](Cc1c[nH]c2ccccc12)NC(=O)[C@H](CCC(N)=O)NC(=O)[C@@H](Cc1ccccc1)NC(=O)COCCOCCNC(=O)[C@H](CCCCNC(=O)CN1CCN(CC(=O)O)CCN(CC(=O)O)CC1)NC(=O)[C@H](Cc1ccccc1)NC(=O)CCCCCCCNC(=O)CC[C@H](NC(=O)N[C@@H](CCC(=O)O)C(=O)O)C(=O)O)C(C)C)C(N)=O [[^68Ga]Ga-BQ7812, metal not drawn] ({Glu-CO-γGlu-Aoc}-FK(NOTA)[AEEA][dF]QWAVGH[Sta]L-NH2)
Binding to the targets in cellular processing (PC3-pip cell line; 1 and 3 h): rapid binding
Internalised fraction of total cell-associated activity (PC3-pip cell line; [4]): approximately 20%
Membrane-bound fraction of total cell-associated activity (PC3-pip cell line; [4]): ~80%
Release of free gallium-68 in human serum [1]: no release of free gallium-68 was detected
Stability in human serum [1]: stable
Clinical or biochemical parameters in toxicological studies (Wistar rats; single iv bolus 10.3 μg (10 MBq for labelled), 24 h and 28 days pi, vs control groups): no changes
Toxicity conclusion (Wistar rats; single iv bolus 10.3 μg, acute (24 h) and subacute (28 days)): absence of toxicity; also recorded: safe toxicological profile
Total dose per scan ([2]; after injection of 200–300 MBq, from estimated effective dose): 1.66–2.49 mSv
Absorbed doses in the remaining organs and tissues (other than kidneys, heart wall, lower large intestine wall) ([2]; estimated for adult male from mouse ex vivo data): below 0.02 mSv/MBq
Absorbed Dose, Adrenals [2, 5]: 0.0043 mGy/MBq
Absorbed Dose, Brain [2, 5]: 0.0007 mGy/MBq
Absorbed Dose, Breasts [2, 5]: 0.0030 mGy/MBq
Absorbed Dose, Gallbladder wall [2, 5]: 0.0042 mGy/MBq
Absorbed Dose, Heart wall [2, 5]: 0.0265 mGy/MBq
Absorbed Dose, Kidneys [2, 5]: 0.0660 mGy/MBq
Absorbed Dose, Liver [2, 5]: 0.0044 mGy/MBq
Absorbed Dose, Lower large intestine wall [2, 5]: 0.0250 mGy/MBq
Absorbed Dose, Lungs [2, 5]: 0.0041 mGy/MBq
Absorbed Dose, Muscle [2, 5]: 0.0024 mGy/MBq
Absorbed Dose, Osteogenic cells [2, 5]: 0.0080 mGy/MBq
Absorbed Dose, Ovaries [2, 5]: 0.0045 mGy/MBq
Absorbed Dose, Pancreas [2, 5]: 0.0186 mGy/MBq
Absorbed Dose, Red marrow [2, 5]: 0.0057 mGy/MBq
Absorbed Dose, Skin [2, 5]: 0.0026 mGy/MBq
Absorbed Dose, Small intestine wall [2, 5]: 0.0199 mGy/MBq
Absorbed Dose, Spleen [2, 5]: 0.0033 mGy/MBq
Absorbed Dose, Stomach wall [2, 5]: 0.0048 mGy/MBq
Absorbed Dose, Testes [2, 5]: 0.0030 mGy/MBq
Absorbed Dose, Thymus [2, 5]: 0.0038 mGy/MBq
Absorbed Dose, Thyroid [2, 5]: 0.0030 mGy/MBq
Absorbed Dose, Total body [2, 5]: 0.0044 mGy/MBq
Absorbed Dose, Upper large intestines LI wall [2, 5]: 0.0111 mGy/MBq
Absorbed Dose, Urinary bladder wall [2, 5]: 0.0036 mGy/MBq
Absorbed Dose, Uterus [2, 5]: 0.0042 mGy/MBq
Effective dose [2, 5]: 0.0083 mSv/MBq
Effective dose equivalent [2, 5]: 0.0124 mSv/MBq
PET/CT visualisation, non-blocked (PC3-pip xenografts; 1 and 3 h pi): elevated activity uptake could be visualised in the kidneys and the tumour
PET/CT visualisation of tumour upon blocking of PSMA and GRPR (PC3-pip xenografts; co-injected NOTA-PEG2-RM26 and PSMA-11 (5 nmol each)): the tumour is no longer visualised
Uptake in tumour and pancreas, GRPR-blocked group compared with non-blocked group (PSMA and GRPR; co-injected NOTA-PEG2-RM26 5 nmol): statistically significantly lower
Uptake in tumour and kidneys, PSMA-blocked group compared with non-blocked group (PSMA and GRPR; co-injected PSMA-11 5 nmol): statistically significantly lower
tissue uptake at 1 h ([3]; blood, GRPR blocked (co-injected NOTA-PEG2-RM26 5 nmol), read-out: Uptake (%IA/g), Blood): 0.69 ± 0.28 %ID/g
tissue uptake at 1 h ([3]; blood, PSMA blocked (co-injected PSMA-11 5 nmol), read-out: Uptake (%IA/g), Blood): 0.8 ± 0.24 %ID/g
tissue uptake at 1 h ([3]; kidneys, GRPR blocked (co-injected NOTA-PEG2-RM26 5 nmol), read-out: Uptake (%IA/g), Kidneys): 34.5 ± 8.74 %ID/g
tissue uptake at 1 h ([3]; kidneys, PSMA blocked (co-injected PSMA-11 5 nmol), read-out: Uptake (%IA/g), Kidneys): 13.8 ± 0.45 %ID/g
tissue uptake at 1 h ([3]; pancreas, GRPR blocked (co-injected NOTA-PEG2-RM26 5 nmol), read-out: Uptake (%IA/g), Pancreas): 0.76 ± 0.14 %ID/g
tissue uptake at 1 h ([3]; pancreas, PSMA blocked (co-injected PSMA-11 5 nmol), read-out: Uptake (%IA/g), Pancreas): 6.33 ± 1.86 %ID/g
tissue uptake at 1 h ([3]; salivary glands, GRPR blocked (co-injected NOTA-PEG2-RM26 5 nmol), read-out: Uptake (%IA/g), Salivary Glands): 0.29 ± 0.07 %ID/g
tissue uptake at 1 h ([3]; salivary glands, PSMA blocked (co-injected PSMA-11 5 nmol), read-out: Uptake (%IA/g), Salivary Glands): 0.38 ± 0.12 %ID/g
tissue uptake at 1 h ([3]; tumour (PC3-pip xenograft), GRPR blocked (co-injected NOTA-PEG2-RM26 5 nmol), read-out: Uptake (%IA/g), Tumour (PC3-pip)): 5.73 ± 0.72 %ID/g
tissue uptake at 1 h ([3]; tumour (PC3-pip xenograft), PSMA blocked (co-injected PSMA-11 5 nmol), read-out: Uptake (%IA/g), Tumour (PC3-pip)): 8.26 ± 1.03 %ID/g
